We go through one protein from article PMC4598982, “Impact of Cell-surface Antigen Expression on Target Engagement and Function of an Epidermal Growth Factor Receptor × c-MET Bispecific Antibody*” (The Journal of Biological Chemistry, 2015).

The data set deals with the molecule itself. The experiment in a line: split reporter (BiFC, NanoBiT); PathHunter enzyme fragment complementation in the c-MET homodimer U-2 OS cell line; recombinant human HGF serially diluted; 6 h at room temperature; lower levels with bivalent c-MET mAb, even lower levels with JNJ-61186372 and monovalent c-MET BsAbs.

B1: c-MET(1–960) C-terminally fused to a complementary inactive fragment of β-galactosidase (receptor, UniProt P08581 25-960, looked up)
chain: ECKEALAKSEMNVNMKYQLPNFTAETPIQNVILHEHHIFLGATNYIYVLNEEDLQKVAEYKTGPVLEHPDCFPCQDCSSKANLSGGVWKDNINMALVVDTYYDDQLISCGSVNRGTCQRHVFPHNHTADIQSEVHCIFSPQIEEPSQCPDCVVSALGAKVLSSVKDRFINFFVGNTINSSYFPDHPLHSISVRRLKETKDGFMFLTDQSYIDVLPEFRDSYPIKYVHAFESNNFIYFLTVQRETLDAQTFHTRIIRFCSINSGLHSYMEMPLECILTEKRKKRSTKKEVFNILQAAYVSKPGAQLARQIGASLNDDILFGVFAQSKPDSAEPMDRSAMCAFPIKYVNDFFNKIVNKNNVRCLQHFYGPNHEHCFNRTLLRNSSGCEARRDEYRTEFTTALQRVDLFMGQFSEVLLTSISTFIKGDLTIANLGTSEGRFMQVVVSRSGPSTPHVNFLLDSHPVSPEVIVEHTLNQNGYTLVITGKKITKIPLNGLGCRHFQSCSQCLSAPPFVQCGWCHDKCVRSEECLSGTWTQQICLPAIYKVFPNSAPLEGGTRLTICGWDFGFRRNNKFDLKKTRVLLGNESCTLTLSESTMNTLKCTVGPAMNKHFNMSIIISNGHGTTQYSTFSYVDPVITSISPKYGPMAGGTLLTLTGNYLNSGNSRHISIGGKTCTLKSVSNSILECYTPAQTISTEFAVKLKIDLANRETSIFSYREDPIVYEIHPTKSFISGGSTITGVGKNLNSVSVPRMVINVHEAGRNFTVACQHRSNSEIICCTTPSLQQLNLQLPLKTKAFFMLDGILSKYFDLIYVHNPVFKPFEKPVMISMGNENVLEIKGNDIDPEAVKGEVLKVGNKSCENIHLHSEAVLCTVPNDLLKLNSELNIEWKQAISSTVLGKVIVQPDQNFTGLIAGVVSISTALLLLLGFFLWLKKRKQ
notes: signal peptide in the construct; membrane localisation of the construct was checked by flow cytometry; In the homodimer cell line two copies carry the two complementary β-gal fragments; also called hepatocyte growth factor receptor; HGF receptor; source: U-2 OS cells, stably transfected, on cells
Regarding B1, the “EC50 of HGF for c-MET homodimerization” value came out at 3.21 nM.
